From paper PMC2186201

Biological target: human C3bi, bound to erythrocytes (EC3bi) (human) (UniProt P01024)
Test: conglutinin-dependent hemagglutination

conglutination (percent of activity): 100%
B1: bovine conglutinin (natural protein)
chain: AEMTTFSQKILANACTLVMCSPLESGLPGHDGQDGRECPHGEKGDPGSPGPAGRAGRPGWVGPIGPKGDNGFVGEPGPKGDTGPRGPPGMPGPAGREGPSGKQGSMGPPGTPGPKGETGPKGGVGAPGIQGFPGPSGLKGEKGAPGETGAPGRAGVTGPSGAIGPQGPSGARGPPGLKGDRGDPGETGAKGESGLAEVNALKQRVTILDGHLRRFQNAFSQYKKAVLFPDGQAVGEKIFKTAGAVKSYSDAEQLCREAKGQLASPRSSAENEAVTQMVRAQEKNAYLSMNDISTEGRFTYPTGEILVYSNWADGEPNNSDEGQPENCVEIFPDGKWNDVPCSKQLLVICEF
